Data from patent US6642040B2, “Human cGMP-stimulated cyclic nucleotide phosphodiesterase” (The Board of Regents of the University of Washington, priority 1991, dated 2003).

What was measured:
cAMP hydrolysis = assay: cGS-PDE activity of PPD-S49 cells transfected with cGS-PDE cDNA; type: biochemical, bovine; details: zinc-treated PPD S49 cells, pZEM 228 vector
Excerpt: A putative phosphodiesterase-deficient (PPD) strain of S49 cells [Bourne et al., J. Cell. Physiol., 85:611-620 (1975)] was transiently transfected with the cGS-PDE cDNA using the DEAE-dextran method. The cGS-PDE cDNA was ligated into the unique BamHI cloning site in a mammalian expression vector, designated pZEM 228, following a zinc-inducible metallothionine promoter and prior to an SV40 transcription termination sequence. The DNA was purified from large-scale plasmid preparations using Qiagen pack-500 columns as directed by the manufacturer. PPD-S49 cells were cultured in DMEM containing 10% heat-inactivated horse serum, 50 μg/ml penicillin G and 50 μg/ml streptomycin sulfate at 37° C. in a water-saturated 7% CO2 atmosphere. Prior to transfections, confluent 100 mm dishes of cells were replated at one-fifth of the original density and incubated for 24-36 h. In a typical transfection experiment, PPD-S49 cells (50-80% confluent) were washed with Tris-buffered-saline and approximately 2×10^7 cells were transfected with […] of DNA mixed with 400 μg of DEAE-dextran in one ml of TBS. […]
cGS PDE activity was determined by a previously described method using [^3H]cAMP as the substrate as in Martins et al., J. Biol. Chem., 257:1973-1979 (1982). […] The Bradford assay [Bradford, Anal. Biochem., 72:248-254 (1976)] was used to quantitate protein using BSA as the standard.

cGS-PDE activity = cGS-PDE activity of membrane and supernatant fractions of transfected COS-7 cells; type: biochemical, bovine; details: most of the activity in supernatant fractions
Excerpt: Transient expression of the CGS-PDE cDNA in COS-7 cells was accomplished as in Example I. A 4.2 kb fragment of p3CGS-5 was isolated using HindIII and NotI and was inserted into plasmid pCDM8, which had been digested with the same enzymes. The character of products produced in COS-7 cells transformed with the p3CGS-5/pCDM8 construct is discussed in Example V, infra.
For transient expression in COS-7 cells, a 3.8 kb fragment of pBBCGSPDE-7 was isolated using HindIII and NotI and inserted into plasmid pCDM8 which had been cut with HindIII and NotI restriction endonucleases. The recombinant pBBCGSPDE-7/CDM8 construct was used to transiently transfect COS-7 cells. The properties of the pBBCGSPDE-7/CDM8 construct and the p3CGS-5/CDM8 construct prepared in Example IV products were subsequently compared. Membrane and supernatant fractions were prepared from extracts of transfected COS-7 cells and assayed for cGS-PDE activity. […] However, a 10-fold greater percentage of total cGS-PDE activity was detected in membranes from COS-7 cell extracts transfected with the pBBCGSPDE-7/CDM8 construct than in membranes prepared from p3CGS-5/CDM8-transfected COS-7 cells.

yeast host strain YKS45 = assay: Yeast heat shock phenotype complementation, strain YKS45; type: cell-based, S. cerevisiae; details: YKS45, 56° C. for 10, 20, 30 and 45 minutes
Experimental: The host cells used in these procedures were S. cerevisiae yeast strains 10DAB (ATCC accession No. 74049) and YKS45, both of which were pde^1- pde^2- resulting in a phenotype characterized by heat shock sensitivity, i.e., the inability of cells to survive exposure to elevated temperatures on the order of 55-56° C. In these complementation procedures, the inserted gene product was noted to conspicuously modify the heat shock phenotype.
In a like manner, plasmid pHcgs6n (Example VI) was transformed into yeast host strain YKS45 by lithium acetate transformation. Heat shock analysis was performed as above except that the plates were initially grown two days at 30° C. and the warmed plates were maintained at 56° C. for 10, 20, 30 and 45 minutes.

[1] = tested on: cyclic AMP and cyclic GMP hydrolysis; assay: Phosphodiesterase assay of yeast cell extracts, second method of part D; type: biochemical, human; details: extracts of YKS45
Experimental: YKS45 transformed with plasmid pHcgs6n were grown in SC-leu medium to 1-2×10^7 cells/ml. The cells were harvested by centrifugation and the cell pellets were frozen. A frozen cell pellet, typically containing 10^10 cells, was mixed with lysis buffer (25 mM Tris HCl pH 8, 5 mM EDTA, 5 mM EGTA, 1 mM o-phenathroline, 0.5 mM AEBSF, 0.01 mg/mL pepstatin, 0.01 mg/mL leupeptin, 0.01 mg/mL aprotinin, 0.1% 2-mercaptoethanol) to bring the total volume to 2.5 ml. The mixture was thawed on ice and then added to an equal volume of glass beads. The cells were disrupted by cycles of vortexing and chilling on ice, then additional lysis buffer was mixed with the disrupted cells to bring the total lysis buffer added to 5 ml. The suspension was centrifuged for 5 min. at 12,000× g. The supernatant was removed and either assayed immediately or frozen rapidly in a dry ice ethanol bath and stored at −70° C.
Phosphodiesterase activity was assayed by mixing an aliquot of cell extract in (40 mM Tris-Cl pH 8.0, 1.mM EGTA, 0.01 mg/mL BSA) containing 5 mM MgCl2 and radioactive substrate, incubating at 30° C. for up to 30 min. and terminating the reaction with stop buffer (0.1 M ethanolamine pH 9.0, 0.5M ammonium sulfate, 10 mM EDTA, 0.05% SDS final concentration). […] The radioactive product was measured by scintillation counting.

B1: cGS-PDE cDNA: expression product of bovine adrenal cortex cGS-PDE cDNA (SEQ ID NO: 39) (protein)
chain: MRRQPAASRDLFAQEPVPPGSGDGALQDALLSLGSVIDVAGLQQAVKEALSAVLPKVETVYTYLLDGESRLVCEEPPHELPQEGKVREAVISRKRLGCNGLGPSDLPGKPLARLVAPLAPDTQVLVIPLVDKEAGAVAAVILVHCGQLSDNEEWSLQAVEKHTLVALKRVQALQQRESSVAPEATQNPPEEAAGDQKGGVAYTNQDRKILQLCGELYDLDASSLQLKVLQYLQQETQASRCCLLLVSEDNLQLSCKVIGDKVLEEEISFPLTTGRLGQVVEDKKSIQLKDLTSEDMQQLQSMLGCEVQAMLCVPVISRATDQVVALACAFNKLGGDLFTDQDEHVIQHCFHYTSTVLTSTLAFQKEQKLKCECQALLQVAKNLFTHLDDVSVLLQEIITEARNLSNAEICSVFLLDQNELVAKVFDGGVVEDESYEIRIPADQGIAGHVATTGQILNIPDAYAHPLFYRGVDDSTGFRTRNILCFPIKNENQEVIGVAELVNKINGPWFSKFDEDLATAFSIYCGISIAHSLLYKKVNEAQYRSHLANEMMMYHMKVSDDEYTKLLHDGIQPVAAIDSNFASFTYTPRSLPEDDTSMAILSMLQDMNFINNYKIDCPTLARFCLMVKKGYRDPPYHNWMHAFSVSHFCYLLYKNLELTNYLEDMEIFALFISCMCHDLDHRGTNNSFQVASKSVLAALYSSEGSVMERHHFAQAIAILNTHGCNIFDHFSRKDYQRMLDLMRDIILATDLAHHLRIFKDLQKMAEVGYDRTNKQHHSLLLCLLMTSCDLSDQTKGWKTTRKIAELIYKEFFSQGDLEKAMGNRPMEMMDREKAYIPELQISFMEHIAMPIYKLLQDLFPKAAELYERVASNREHWTKVSHKFTIRGLPSNNSLDFLDEEYEVPDLDGARAPINGCCSLDAE
How did the “cGMP-enhanced cAMP phosphodiesterase activity” value (cAMP hydrolysis) turn out when B1 was run?
The value was “expressed cGMP-enhanced CAMP phosphodiesterase activity”.

What about the “cGS-PDE activity in COS-7 cell extracts” value (cGS-PDE activity) of the same molecule?
Its value is “produced cGS-PDE activities”.

B2: pHcgs6n: yeast expression plasmid with coding region of human cGS-PDE (SEQ ID NO: 45) (protein)
chain: MGQACGHSILCRSQQYPAARPAEPRGQQVFLKPDEPPPPPQPCADSLQDALLSLGSVIDISGLQRAVKEALSAVLPRVETVYTYLLDGESQLVCEDPPHELPQEGKVREAIISQKRLGCNGLGFSDLPGKPLARLVAPLAPDTQVLVMPLADKEAGAVAAVILVHCGQLSDNEEWSLQAVEKHTLVALRRVQVLQQRGPREAPRAVQNPPEGTAEDQKGGAAYTDRDRKILQLCGELYDLDASSLQLKVLQYLQQETRASRCCLLLVSEDNLQLSCKVIGDKVLGEEVSFPLTGCLGQVVEDKKSIQLKDLTSEDVQQLQSMLGCELQAMLCVPVISRATDQVVALACAFNKLEGDLFTDEDEHVIQHCFHYTSTVLTSTLAFQKEQKLKCECQALLQVAKNLFTHLDDVSVLLQEIITEARNLSNAEICSVFLLDQNELVAKVFDGGVVDDESYEIRIPADQGIAGHVATTGQILNIPDAYAHPLFYRGVDDSTGFRTRNILCFPIKNENQEVIGVAELVNKINGPWFSKFDEDLATAFSIYCGISIAHSLLYKKVNEAQYRSHLANEMMMYHMKVSDDEYTKLLHDGIQPVAAIDSNFASFTYTPRSLPEDDTSMAILSMLQDMNFINNYKIDCPTLARFCLMVKKGYRDPPYHNWMHAFSVSHFCYLLYKNLELTNYLEDIEIFALFISCMCHDLDHRGTNNSFQVASKSVLAALYSSEGSVMERHHFAQAIAILNTHGCNIFDHFSRKDYQRMLDLMRDIILATDLAHHLRIFKDLQKMAEVGYDRNNKQHHRLLLCLLMTSCDLSDQTKGWKTTRKIAELIYKEFFSQGDLEKAMGNRPMEMMDREKAYIPELQISFMEHIAMPIYKLLQDLFPKAAELYERVASNREHWTKVSHKFTIRGLPSNNSLDFLDEEYEVPDLDGTRAPINGCCSLDAE
Which “heat shock phenotype of transformed yeast” value (yeast host strain YKS45) does the source give for B2 here?
Its value is “resistant to thermal pulse”.

And the “hydrolysis of cyclic AMP and cyclic GMP by cell extracts” value [1]?
The value was “hydrolyzed both cyclic AMP and cyclic GMP”.
